In publication PMC9895041, “Molecular evolutionary insight of structural zinc atom in yeast xylitol dehydrogenases and its application in bioethanol production by lignocellulosic biomass” (Scientific Reports, 2023):
Residue numbers refer to the chain shown, from its start. Names and notes keep the numbering of the source.

B1: SpXDH C97S mutant (enzyme, Schizosaccharomyces pombe, UniProt P36624 1-360, looked up)
chain: MAPAEKAFVLRKKMDTAIEDRPGQTLTDDHQVKVAIKATGICGSDVHYWKEGGIGDFILKKPMILGHESAGVVVEVGKGVSSLKPGDPVAVEPGCVSRLCDYCRSGRYNLCPHMEFAATPPYDGTLRTYYITTEDFCTKLPKQISVEEGALFEPMSVAVHAMTRGNLKCGSRVLVMGCGTVGLLMMAVAKAYGAIDIVAVDASPSRVEFAQKYVGAKPFTPIAAKENESLPDYAQRYKQAIIEKYGEFDFAVDATGVGICIHTAVLALKRGGTFVQAGNGKPVIDFPINHIINYEINVLGSFRYAHGCYKQSLFLVSNGLVDVKPLITHRFAFKDALKAYETVASGEEGVLKVIIGGPDA
notes: SPBC1773.05c protein of S. pombe (SpXDH), cloned into pQE-81L; source: E. coli DH5α, purified (Ni-NTA)
B2: SpXDH C100S mutant (enzyme, Schizosaccharomyces pombe, UniProt P36624 1-360, looked up)
chain: B1 chain with S97C, C100S
notes: as for B1
B3: SpXDH C103S mutant (enzyme, Schizosaccharomyces pombe, UniProt P36624 1-360, looked up)
chain: B1 chain with S97C, C103S
notes: as for B1
B4: SpXDH C97D mutant (enzyme, Schizosaccharomyces pombe, UniProt P36624 1-360, looked up)
chain: B1 chain with S97D
notes: as for B1
B5: SpXDH (Schizosaccharomyces pombe 972h-; C100D) (protein)
chain: B1 chain with S97C, C100D
B6: SpXDH C103D mutant (enzyme, Schizosaccharomyces pombe, UniProt P36624 1-360, looked up)
chain: B1 chain with S97C, C103D
notes: as for B1
B7: SpXDH (Schizosaccharomyces pombe 972h-; C111D) (protein)
chain: B1 chain with S97C, C111D
B8: PsXDH (Scheffersomyces stipitis CBS 6054) (protein)
chain: MTANPSLVLNKIDDISFETYDAPEISEPTDVLVQVKKTGICGSDIHFYAHGRIGNFVLTKPMVLGHESAGTVVQVGKGVTSLKVGDNVAIEPGIPSRFSDEYKSGHYNLCPHMAFAATPNSKEGEPNPPGTLCKYFKSPEDFLVKLPDHVSLELGALVEPLSVGVHASKLGSVAFGDYVAVFGAGPVGLLAAAVAKTFGAKGVIVVDIFDNKLKMAKDIGAATHTFNSKTGGSEELIKAFGGNVPNVVLECTGAEPCIKLGVDAIAPGGRFVQVGNAAGPVSFPITVFAMKELTLFGSFRYGFNDYKTAVGIFDTNYQNGRENAPIDFEQLITHRYKFKDAIEAYDLVRAGKGAVKCLIDGPE
notes: full length, N-terminal His6 tag (pQE-81L), E. coli DH5alpha; homotetramer; 7Y9P is the apo C4 mutant
B9: PsXDH (Scheffersomyces stipitis CBS 6054; S96C/S99C/Y102C) (protein)
chain: B8 chain with S96C, S99C, Y102C
notes: as for B8
B10: PsXDH (Scheffersomyces stipitis CBS 6054; S96D/S99C/Y102C) (protein)
chain: B8 chain with S96D, S99C, Y102C
notes: as for B8
B11: ScXDH (Saccharomyces cerevisiae S288C) (protein)
chain: MTDLTTQEAIVLERPGKITLTNVSIPKISDPNEVIIQIKATGICGSDIHYYTHGRIANYVVESPMVLGHESSGIVALIGENVKTLKVGDRVALEPGIPDRFSPEMKEGRYNLDPNLKFAATPPFDGTLTKYYKTMKDFVYKLPDDVSFEEGALIEPLSVAIHANKLAKIKFGARCVVFGAGPIGLLAGKVASVFGAADVVFVDLLENKLETARQFGATHIVNSGDLPHGVTVDSVIKKAIGKKGADVVFECSGAEPCVRAGIEVCKAGGTIVQVGMGQEEIQFPISIIPTKELTFQGCFRYCQGDYSDSIELVSSRKLSLKPFITHRYSFKDAVEAFEETSHHPLNNIKTIIEGPE
B12: ScXDH (Saccharomyces cerevisiae S288C; D113C/D99C/M105C/S102C) (protein)
chain: B11 chain with D99C, S102C, M105C, D113C
B13: SpXDH wild type (xylitol dehydrogenase, SPBC1773.05c protein from Schizosaccharomyces pombe) (enzyme, UniProt P36624 1-360, looked up)
chain: B1 chain with S97C
notes: cloned into pQE-81L; also called SpXDHWT; WT; source: E. coli DH5α, purified (Ni-NTA)
B14: PsXDHC4 mutant (xylitol dehydrogenase from Pichia stipitis, S96C/S99C/Y102C) (enzyme)
chain: TANPSLVLNKIDDISFETYDAPEISEPTDVLVQVKKTGICGSDIHFYAHGRIGNFVLTKPMVLGHESAGTVVQVGKGVTSLKVGDNVAIEPGIPCRFCDECKSGHYNLCPHMAFAATPNSKEGEPNPPGTLCKYFKSPEDFLVKLPDHVSLELGALVEPLSVGVHASKLGSVAFGDYVAVFGAGPVGLLAAAVAKTFGAKGVIVVDIFDNKLKMAKDIGAATHTFNSKTGGSEELIKAFGGNVPNVVLECTGAEPCIKLGVDAIAPGGRFVQVGNAAGPVSFPITVFAMKELTLFGSFRYGFNDYKTAVGIFDTNYQNGRENAPIDFEQLITHRYKFKDAIEAYDLVRAGKGAVKCLIDGPE
notes: xylitol dehydrogenase (XDH) of Pichia stipitis (Scheffersomyces stipitis), encoded by the PICST_86924 gene, cloned into pQE-81L; the model holds Thr2-Pro362 (Ser121-Gly124 not built); source: E. coli DH5α, purified (Ni-NTA, Superdex 200)
B15: SpXDH C111S mutant (enzyme, Schizosaccharomyces pombe, UniProt P36624 1-360, looked up)
chain: B1 chain with S97C, C111S
notes: as for B1

What was measured:
purified protein [1] = substrate: OC[C@@H](O)[C@H](O)[C@@H](O)CO; test: purified protein; conditions: 1.5 mM NAD+, 50 mM Tris-HCl pH 8.0, 30 °C
[2] = target: the molecule itself; test: SEC; gel filtration of the sample purified by Ni-NTA (HiLoad 16/600 Superdex 200 pg, 20 mM Tris-HCl pH 8.0, 150 mM NaCl)
purified protein [3] = substrate: OC[C@@H](O)[C@H](O)[C@@H](O)CO; test: purified protein; type: biochemical, Scheffersomyces stipitis; conditions: […] NAD+, 50 mM Tris-HCl pH 8.0, 30 °C
[4] = target: the molecule itself; test: SEC; analytical size-exclusion chromatography of PsXDHC4 in solution

Protein	Km (purified protein [1]; 1-10 mM xylitol)	kcat (purified protein [1]; 1-10 mM xylitol)	kcat/Km (purified protein [1]; 1-10 mM xylitol)	stoichiometry N [2]	further results
B1	12.3 ± 2.3 mM	6.03 s⁻¹	493 M⁻¹ s⁻¹	4	–
B2	16.2 ± 5.0 mM	0.202 s⁻¹	12.4 M⁻¹ s⁻¹	4	–
B3	–	–	–	4	Km (purified protein [1]; xylitol range not marked): 9.01 ± 0.74 mM; kcat (purified protein [1]; xylitol range not marked): 2.08 s⁻¹; kcat/Km (purified protein [1]; xylitol range not marked): 233 M⁻¹ s⁻¹
B4	10.4 ± 0.1 mM	6.78 s⁻¹	650 M⁻¹ s⁻¹	4	–
B5	8.26 ± 0.89 mM	2.17 s⁻¹	263 M⁻¹ s⁻¹	–	–
B6	10.5 ± 0.7 mM	7.82 s⁻¹	743 M⁻¹ s⁻¹	4	–
B7	9.76 ± 0.15 mM	3.6 s⁻¹	368 M⁻¹ s⁻¹	–	–
B8	–	–	–	–	Km (purified protein [3]; 0.1-1 mM xylitol): 2.05 ± 0.20 mM; kcat (purified protein [3]; 0.1-1 mM xylitol): 0.63 ± 0.0583 s⁻¹; kcat/Km (purified protein [3]; 0.1-1 mM xylitol): 307 ± 3.33 M⁻¹ s⁻¹
B9	–	–	–	–	Km (purified protein [3]; 0.1-1 mM xylitol): 4.94 ± 1.62 mM; kcat (purified protein [3]; 0.1-1 mM xylitol): 6.4 ± 1.85 s⁻¹; kcat/Km (purified protein [3]; 0.1-1 mM xylitol): 1320 ± 66.7 M⁻¹ s⁻¹
B10	–	–	–	–	Km (purified protein [3]; 1-10 mM xylitol): 11.0 ± 1.2 mM; kcat (purified protein [3]; 1-10 mM xylitol): 9.17 ± 0.633 s⁻¹; kcat/Km (purified protein [3]; 1-10 mM xylitol): 837 ± 28.3 M⁻¹ s⁻¹
B11	–	–	–	–	Km (purified protein [1]; 0.1-1 mM xylitol): 1.82 ± 0.42 mM; kcat (purified protein [1]; 0.1-1 mM xylitol): 0.0182 s⁻¹; kcat/Km (purified protein [1]; 0.1-1 mM xylitol): 10.1 M⁻¹ s⁻¹
B12	–	–	–	–	Km (purified protein [1]; 0.1-1 mM xylitol): 5.44 ± 0.78 mM; kcat (purified protein [1]; 0.1-1 mM xylitol): 0.402 s⁻¹; kcat/Km (purified protein [1]; 0.1-1 mM xylitol): 74 M⁻¹ s⁻¹
B13	6.10 ± 0.34 mM	6.95 s⁻¹	1140 M⁻¹ s⁻¹	4	–
B14	–	–	–	–	stoichiometry N [4]: 4
B15	–	–	–	4	–
